Publication PMC10902388 (Nature Communications, 2024)

Assays:
[1] = target: T1, full-length human E6AP (C-terminal TEV-6xHis-Avi) (human, UniProt Q05086 1-875, biotin on the Avi tag (BirA biotin-protein ligase) in the SPR experiments); test: SPR; settings: both partners purified
T1 construct: also called UBE3A; biotin-E6AP

[2] = target: T1, full-length human E6AP (C-terminal …); test: cell-based or functional assay

T1 sequence (Q05086 whole entry): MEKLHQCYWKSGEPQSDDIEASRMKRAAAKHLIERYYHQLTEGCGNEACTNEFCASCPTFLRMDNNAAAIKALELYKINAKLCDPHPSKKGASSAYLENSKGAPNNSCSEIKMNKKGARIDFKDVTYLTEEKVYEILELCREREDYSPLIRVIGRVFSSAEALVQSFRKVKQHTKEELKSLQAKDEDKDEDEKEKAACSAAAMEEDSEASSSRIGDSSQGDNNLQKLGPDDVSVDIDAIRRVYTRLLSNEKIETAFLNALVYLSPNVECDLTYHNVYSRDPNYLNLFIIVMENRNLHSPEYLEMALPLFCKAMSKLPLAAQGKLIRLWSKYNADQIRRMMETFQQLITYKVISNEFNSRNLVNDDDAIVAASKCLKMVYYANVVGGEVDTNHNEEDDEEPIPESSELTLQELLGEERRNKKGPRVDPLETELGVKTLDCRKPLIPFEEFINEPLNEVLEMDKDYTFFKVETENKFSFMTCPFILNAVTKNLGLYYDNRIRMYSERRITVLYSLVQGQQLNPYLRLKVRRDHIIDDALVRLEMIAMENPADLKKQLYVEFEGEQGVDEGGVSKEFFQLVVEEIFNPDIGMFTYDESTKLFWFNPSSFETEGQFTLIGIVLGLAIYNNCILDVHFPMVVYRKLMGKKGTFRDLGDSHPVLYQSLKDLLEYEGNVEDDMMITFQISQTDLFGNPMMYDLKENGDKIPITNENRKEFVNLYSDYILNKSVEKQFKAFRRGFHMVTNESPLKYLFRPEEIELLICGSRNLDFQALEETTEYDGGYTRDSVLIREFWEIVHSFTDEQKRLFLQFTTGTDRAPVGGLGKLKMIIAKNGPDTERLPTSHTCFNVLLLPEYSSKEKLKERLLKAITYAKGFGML

Binder	Kd [1]	unmodified E6AP remaining at 30 min, E6AP autoubiquitination [2]	unmodified p53 remaining at 30 min, in vitro ubiquitination of full-length p53 [2]	unmodified E6AP remaining after 30 min, E6AP autoubiquitination [2]
MBP-16E6(4C4S) F76A (natural protein, Mutant of m2; source: E. coli BL21(DE3), purified (MBPTrap, SEC); not shown: MBP, N-terminal, kept) MHQKRTAMFQDPQERPRKLPQLCTELQTTIHDIILECVYCKQQLLRREVYDFAFRDLCIVYRDGNPYAVCDKCLKAYSKISEYRHYSYSLYGTTLEQQYNKPLSDLLIRCINCQKPLSPEEKQRHLDKKQRFHNIRGRWTGRCMSCSRSSRTRRETQL	8.5 nM	82%	59.5%	
MBP-16E6(4C4S) S89A (natural protein, Mutant of m2; source: E. coli BL21(DE3), purified (MBPTrap, SEC); not shown: MBP, N-terminal, kept) MHQKRTAMFQDPQERPRKLPQLCTELQTTIHDIILECVYCKQQLLRREVYDFAFRDLCIVYRDGNPYAVCDKCLKFYSKISEYRHYSYALYGTTLEQQYNKPLSDLLIRCINCQKPLSPEEKQRHLDKKQRFHNIRGRWTGRCMSCSRSSRTRRETQL	1.71 nM	33.1%	57.3%	
MBP-16E6(4C4S) Y77A (natural protein, Mutant of m2; source: E. coli BL21(DE3), purified (MBPTrap, SEC); not shown: MBP, N-terminal, kept) MHQKRTAMFQDPQERPRKLPQLCTELQTTIHDIILECVYCKQQLLRREVYDFAFRDLCIVYRDGNPYAVCDKCLKFASKISEYRHYSYSLYGTTLEQQYNKPLSDLLIRCINCQKPLSPEEKQRHLDKKQRFHNIRGRWTGRCMSCSRSSRTRRETQL	0.742 nM	21.6%	22.4%	
MBP-16E6(4C4S) R62A (natural protein, Mutant of m2; source: E. coli BL21(DE3), purified (MBPTrap, SEC); not shown: MBP, N-terminal, kept) MHQKRTAMFQDPQERPRKLPQLCTELQTTIHDIILECVYCKQQLLRREVYDFAFRDLCIVYADGNPYAVCDKCLKFYSKISEYRHYSYSLYGTTLEQQYNKPLSDLLIRCINCQKPLSPEEKQRHLDKKQRFHNIRGRWTGRCMSCSRSSRTRRETQL	2.2 nM			9.3%
MBP-16E6(4C4S) R84E (natural protein, Mutant of m2; source: E. coli BL21(DE3), purified (MBPTrap, SEC); not shown: MBP, N-terminal, kept) MHQKRTAMFQDPQERPRKLPQLCTELQTTIHDIILECVYCKQQLLRREVYDFAFRDLCIVYRDGNPYAVCDKCLKFYSKISEYEHYSYSLYGTTLEQQYNKPLSDLLIRCINCQKPLSPEEKQRHLDKKQRFHNIRGRWTGRCMSCSRSSRTRRETQL	195 nM			64.9%
MBP-16E6(4C4S) L57A (natural protein) MHQKRTAMFQDPQERPRKLPQLCTELQTTIHDIILECVYCKQQLLRREVYDFAFRDACIVYRDGNPYAVCDKCLKFYSKISEYRHYSYSLYGTTLEQQYNKPLSDLLIRCINCQKPLSPEEKQRHLDKKQRFHNIRGRWTGRCMSCSRSSRTRRETQL				45.6%
MBP-16E6(4C4S) R84A (natural protein, Mutant of m2; source: E. coli BL21(DE3), purified (MBPTrap, SEC); not shown: MBP, N-terminal, kept) MHQKRTAMFQDPQERPRKLPQLCTELQTTIHDIILECVYCKQQLLRREVYDFAFRDLCIVYRDGNPYAVCDKCLKFYSKISEYAHYSYSLYGTTLEQQYNKPLSDLLIRCINCQKPLSPEEKQRHLDKKQRFHNIRGRWTGRCMSCSRSSRTRRETQL	34.4 nM			64.9%
MBP-16E6(4C4S) Y86A (natural protein, Mutant of m2; source: E. coli BL21(DE3), purified (MBPTrap, SEC); not shown: MBP, N-terminal, kept) MHQKRTAMFQDPQERPRKLPQLCTELQTTIHDIILECVYCKQQLLRREVYDFAFRDLCIVYRDGNPYAVCDKCLKFYSKISEYRHASYSLYGTTLEQQYNKPLSDLLIRCINCQKPLSPEEKQRHLDKKQRFHNIRGRWTGRCMSCSRSSRTRRETQL	6.3 nM	56.5%	44.2%	
MBP-16E6(4C4S) Y88A (natural protein, Mutant of m2; source: E. coli BL21(DE3), purified (MBPTrap, SEC); not shown: MBP, N-terminal, kept) MHQKRTAMFQDPQERPRKLPQLCTELQTTIHDIILECVYCKQQLLRREVYDFAFRDLCIVYRDGNPYAVCDKCLKFYSKISEYRHYSASLYGTTLEQQYNKPLSDLLIRCINCQKPLSPEEKQRHLDKKQRFHNIRGRWTGRCMSCSRSSRTRRETQL	5.4 nM	21.2%	19.2%	
